# From the domain aggregation screens of Martell et al. (2025)
# Assay: soluble fraction after stress (log2 fold change); higher = more stays soluble; pooled small domains, quantitative proteomics
# Settings: stress: 75 degC
# 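Also: 20 min heating vs room temperature control held 20 min.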
row,Sequence,soluble fraction (log2)
1,HMIGAKVLVNGQLHRDSYGEGPGQTESNATRLVNYINMKGSHPYHVTTLDGGWRGWVTADSVQV,0.139
2,HMIGDNNELFQKAQLTPREKEVALLLLQGETNSDIAKILYVGLSTVKKHISSIFEKTKVKSRTEFISKVR,-1.6
3,HMIGDYALILNIKGGSDWYLGNRVELLFTDGTSKIVTTDKDYNAKKDMVPTQIVTYKVNDNGEYSLKALPT,-2.13
4,HMIGEKLKEIREKTGMNKKEFAQYLGLKYTTYNNYETEAREPASDFLILISTKFDVSIDYLLGLQ,-1.15
5,HMIGIEALAGEIDRVRQVLTGGGGLSDVQLFSQLKALNEIKAALGASPDPRAPELVQRVDQLLEAAFRS,0.395
6,HMIGIGSDVPNKLKPAIYSFGLVAVGEKSVIPDGVQIGKNTAVSGVTSKEDYPDGVLESGETLIKA,0.186
7,HMIGKLTSSKLAAIHKMKTNELLAHFTEKGFLNINDAGKYILTQQGKDVGAEFKTSQYGGYFLWPENIE,-0.666
8,HMIGTPLSEWQKDAPEEITRDQIAELVILKFVTVEQLALASDAQLQRIGMGGVGLRERAKLYLNRK,-1.87
9,HMIGVNMEKSTVEKFANELNLPIDLLLKQLESAGIKKTSGAEELLEADKSALLNYLQIEHGA,0.725
10,HMIGVQEFAMTYALTRRETEITQLIIQGKSNAMIAGELFISETTVKKHVSNIFEKTGVSRREELMVRVQAE,-1.98
11,HMIHANGLTDRQEMILEFIRSYISENNYPPSVREIGKGVGLASSASVHNNMKKLASLGFLNWDTD,-1.93
12,HMIHFDHPERSILDTMLYEKKGMTAQSARNRLAAYQFQGEDVFKPVSVLSGGELSRITLAIKNAMADK,-0.36
13,HMIHQPNNETTRNLIAGVVKKSLSVWETRVQVDGVDVTTAKDNLAEVHINIRYRLRHNQTPASLGLRLNLG,-0.0232
14,HMIHSEDMDDHILGHKLVDQYLNKHIEFDNIKKAWNYHTVAIKKFGRYPHRNKILKRESTIEEIDFLKQP,0.252
15,HMIHSEEIQDHIFVKQLGEVFLRNHINYENIMKSWDDHTNVIKRFRRYPHRNKILNRESTIDEISFLKE,0.176
16,HMIIDTELMTRVMKFGFSQADASDLVAQHSDDLLRTAISRVEARAESKGMTPLETPAGYFRWTLQDLVRNP,-2.04
17,HMIIIMKKSATNSEVRKVIERAEKEGLTVQVNQLEKQQVLGLVGDTRLIQDVAFLRYEGVENVERI,-2.37
18,HMIILYTDEQQRIIDRLNEFIGEQPSQNEAAKLLGISAPILTNLRKGTYTGTVDKFMNKLAAYFNIKADLG,-1.3
19,HMIIMVNLYQIWDKEVQGLDSVGAKPEQIEARRQAIAAHFESKARQAGMSSKDIYATLDNFDTYSRQKTS,-2.26
20,HMIINFDAIRLTTELNKYNRHKAIPNSFFDGTFTILDVRDLYDSLSPKVQKIADTLIEQYNVDVKQ,-1.82
21,HMIISMKKGATPQEISHVRKLIEELGYKVHESQGSERMVFGAIGDERSKHRLTSLEAQPGVEKVIPILA,0.0278
22,HMIISMKKTATKEQIAHVRELIEGMGYKAHMSVGAERVIFGAIGDERGKERLVSLEAQPGVEKVIPIL,-0.445
23,HMIITLNIENLKRARENAGLTQTQAAQKIGVSDGTYKNYEQGKREPNGDKIVTIANAFGVTTDYLLGR,-0.475

row,Sequence,soluble fraction (log2)
1,HMIIVMRKGATEAQVNDIVERVRAAGFGVHLSQGEERTIIGAIGGDRAVLADLNLEAAPGVERVTPIS,-0.176
2,HMIIYGLNPVKDFINLFPNKISTLFISKNKLSDSEMKSVVNINTVYVSDAELKRITGTTKHQSLAAEID,-1.2
3,HMIKILGSAYRHGLDDDDILRAWNYHIQEFFEGEDPEKIVRLGFDTHGRLLEIGGEIYPGGGEKIFHAM,-0.733
4,HMIKITLPDGSVKEYKKGITPAEVAQSISEGLARNVISASYNGKTIETVTPLTTDGSLVLYTWDSPEGK,0.0404
5,HMIKLTVRQQEILDLIARSIDQTGFPPTRAEIAAELGFKSVNAAEEHLQALARKGVIEMVPGISRGIRLVQ,-1.48
6,HMIKRNPLDEIEGVGPGRKKALLHAFGSAKGVSRASVVDLVKVEGVSQALAERIHDFFHPATR,-0.299
7,HMIKSIRELAEVITLWKNQGKTILIAEHRLSYLMDLADRVLYMKDGQIENDFSMADFRKIPPDEISRMGLR,0.103
8,HMIKVAANESNRSDVLEIVRLFRVRVVDVNPESLTIEATGAEGKIDALLGLLEHYGVIELVRSGAVAVT,-1.86
9,HMILESREKYLGEVLEVLVEEEKEGEYFGYSQNYLRVKFKLEEKNLINQLINIKIKSIEDDILIGEKEN,-3.46
10,HMILKNVTSDLANKRLDKVASILFQTYSRTQIKKWILEGRVLVNGEISNPKDHVHENDEIEINPI,-1.9
11,HMIMISKSFEINEDNINKRLDIFLTENLDGLSRGIVQKYISLEQITVNKESSHKDYRLKLDDFIEVKIQAH,-4
12,HMIMNDIQAKVLEIAETKDLGSITYYRLSKMLGVDHPYRVKYAIDKLIEKGLLTAKSDGSITKAI,-1.47
13,HMIMTTKVSGIMFDKFNPSAILNINGMDYLVRSGDIINGYKILSIGQETVTVQYGANVYKASVG,-4.48
14,HMIMVAGHLQIKKGKYYMVLELKSESGERKTKWISTGLSAKGNKRKAEAMLEEARENYQSTDA,-1.13
15,HMINIFKVKKAMEEIFASEWEDSPYTDQKISQILWSRGFSVSTGLVEKYRGQMGVPDANSRLNLN,-2.49
16,HMINIGANIRAIRKQKNIKQVDLVRLLQLEGVEITRETLVKIESGVQHIKASQLRGIRDALGTTYDELL,-2.88
17,HMINITALVKQLGGVDISKFNSAFKLLQQGKPLNTISNKVMADTFVALMKNSDEALNTKFRAAFKKI,-0.441
18,HMINKIANLSAELRMEGLPVSIRSTQAAVKIYMDLGGDDRNLLKTALMSIYVKDRYDIPKFNKVFEKLFA,-1.66
19,HMINKQPKDYEYFLEKWHFTQTEKHQLHNLILKLNIRYPNKDFLKITENLDNGKLVLKKLEERLSKT,-1.33
20,HMINNINKLPETQFIKLFANIFENSQFIAVALYKKKGDGFSDFKDLINKIMDIFENTTKEKKLKILNA,-0.381
21,HMINPASEKQLSFANSLIAKKEGGTETLNHYLHNRKVSSLEELDRKDVSEIINALKFAKEVT,0.641
22,HMINRPVYVPLYTNLDVKDAAEIAEKLEENNIAYKLEDQGETILVNPEQKYKVRLMLAQEGLPKG,0.0786
23,HMINSFDYLQAIFTELMKSQSKMTNQDAAKRLFMQGKVAVSNRDREGLRMVLAQLVTLLPKEELGGLSTVS,-1.38

row,Sequence,soluble fraction (log2)
1,HMIPESVQGIEEFLATGALKGIGKKTAAAIVHKFGKDTLRIMEEEPERLAEVSGIGEKKAAAIGEAFALH,0.134
2,HMIPNPMTDRELEVLGLLASGKTYKQVARALDLSQSTVRNHLHNVYHKLNVVDRAQAVIVSRENGW,-0.379
3,HMIPPGTITIEGAITKVPVFLDGKQIGTVPLTKEDVEPGKYRIRVLGVGRVITIDPGEKENVLFSGEDLGL,-0.0563
4,HMIPTDPNGDLIKILYTSDQINELYARAKLNDVEDLFLDWTKNVLGESNFEETGPTKNEYLIPQ,-0.0775
5,HMIPTTELAERLGTTKVANMIMLGALIKASGIISFDDMIKNLGELLGEGKAKLIKLNKEALEVGFN,0.139
6,HMIPYSDLLKLLSNDAMPKFRNKDGWAKIHALETYLASRWSYQEYGFASFTVLLETVHNAEIRNDSVRLM,-0.479
7,HMIQTMVVTDLKNGTIFKENGHPFIVLKYEHIKVSRGSAQVRVKMKNLITGQVLEKSWQSTAHVDDT,-3.24
8,HMIRMPNLIGLSVRSAEQQLVIAGLKKGIVHQVNDPRLKEVIDMQALGHKITAGSSIPKGTEVDLYIGNGT,-0.944
9,HMISAVDLMAARRKIEAGITNLQPGQAFTLPNKVGWVKRMTGGSYFIQGNGGYTASVRTISEAIQAAAMLL,-3.11
10,HMISDQENDLNLKHLFDTADQNKDGLILESELKMLMTNLEINKETYDTVMKQITPAGMDYKTFSSL,0.293
11,HMISFLNFVRKEIDASQLKDSTKQNHLTTIGLLQSFKPSIEFKDLNYNFITSFEKYLYDAGYQM,0.0114
12,HMISKQQRQALILDIIQKQSITSQEALLTELQRHHVMTTQTTVSRDIRALGIVRIKDVNGELSYQQLQ,-2.69
13,HMISKRFQIDEDNSNKRIDIFLTQSLDSISRGIVQQLILENKVEVNGGPVKRNYLIKIGDVIDVKIDL,-2.96
14,HMISKTFEINEDNINNRLDIFLANQFDNLSRGIVQKLIESHSVSVSGNFVEKDYKLKLGDIIDVEINLS,-1.64
15,HMISLNEDQKLAILNEWNQRPDDPPFIKELIELVFPDIPEEAKTGRSRYGIAIKKFLAEKSLQAKV,-0.197
16,HMISLPSYIREEATEVYNRLHDLGLEYTSLDVNDDSIPKGYVVRTVPEAGASVPAGQVVTVYVSLG,-0.829
17,HMISQLRGKVLGTDRDALVIDVGGVGFRVSATAGARALAGQSGNEARLFTEMVVREDSIDLFGF,0.0812
18,HMISRKIKELRLSHDLTQKDLADYLNLTPKMVSFYELGQRVPPSDIILKLAEKFHVSTDYLLGNEDRP,-0.196
19,HMITDNEFLRIVSFLKQRYGIDMSQKKVIMNGRLENYLKSGGWSSFDEYMNDVEKDTSGDLEKTLVNFLTT,-1.38
20,HMITETIGANIKTLRDKFRMSQQDLASKMNTARPVISNWENGKTEPSSSQLLKLAKIFDTSTDKILGNV,0.0689
21,HMITKEDVANKKVNLLFFGNFHKMKLPDFEWGITEMMQDRDYLYGSLTKDLYFLGLVLDRKYKI,0.241
22,HMITKENYLEKIKEIKVNEFPASMRELYDFFNEATRNGTDWSAYEEGNVKYVVDAYLERLNLLYKSN,-1.01
23,HMITLYIHNLEEVGKRLDHYLVSNLDDHSRSQIQSWIRSGSILVNDRSVKTGYSLELNDQILINPPK,-2.51
